From patent US20260232827A1, “ANTIBODY-DRUG CONJUGATES TARGETING NAPI2B AND METHODS OF USE” (Zymeworks BC Inc., priority 2023, published 2026) come the findings set out here.

The target in assay [1] is Fcγ receptor (FcγR) on the surface of immune effector cells. Briefly: cell-based or functional assay.
The target of assay [2] is human sodium-dependent phosphate transporter 2B (NaPi2b) (human) (UniProt O95436). Briefly: competition flow cytometry, human NaPi2b on HEK293-6e; row antibody unlabeled 100 ug/mL; competitor: labeled v23855 1 ug/mL.
human sodium-dependent phosphate transporter 2B (NaPi2b) (human), sequence (O95436 whole entry): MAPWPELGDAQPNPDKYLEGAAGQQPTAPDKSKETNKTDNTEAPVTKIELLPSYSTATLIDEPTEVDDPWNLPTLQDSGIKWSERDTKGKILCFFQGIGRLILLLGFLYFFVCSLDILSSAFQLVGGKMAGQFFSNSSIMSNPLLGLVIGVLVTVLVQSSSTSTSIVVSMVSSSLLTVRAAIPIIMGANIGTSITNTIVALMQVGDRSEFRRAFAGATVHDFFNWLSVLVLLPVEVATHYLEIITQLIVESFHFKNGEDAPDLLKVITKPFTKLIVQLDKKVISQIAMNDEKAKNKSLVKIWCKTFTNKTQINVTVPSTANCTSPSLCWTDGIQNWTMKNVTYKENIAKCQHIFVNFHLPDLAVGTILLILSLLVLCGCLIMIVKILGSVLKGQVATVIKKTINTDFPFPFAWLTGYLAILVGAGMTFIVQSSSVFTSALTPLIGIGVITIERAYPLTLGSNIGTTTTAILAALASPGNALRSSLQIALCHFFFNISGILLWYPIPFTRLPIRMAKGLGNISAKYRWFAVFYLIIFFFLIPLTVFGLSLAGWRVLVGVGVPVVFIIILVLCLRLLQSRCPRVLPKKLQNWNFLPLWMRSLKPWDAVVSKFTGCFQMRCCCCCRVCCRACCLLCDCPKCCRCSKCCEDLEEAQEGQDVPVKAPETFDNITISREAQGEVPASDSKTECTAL
Assay [3] shares this target. Briefly: competition flow cytometry, human NaPi2b on HEK293-6e; row antibody unlabeled 100 ug/mL; competitor: labeled v18992 (MX35) 1 ug/mL.
The target is the same in assay [4]. Briefly: competition flow cytometry, human NaPi2b on HEK293-6e; row antibody unlabeled 100 ug/mL; competitor: labeled v16955 (negative control) 1 ug/mL.
For assay [5] the target is unchanged. Briefly: competition flow cytometry, human NaPi2b on HEK293-6e; row antibody unlabeled 100 ug/mL; competitor: labeled v18993 (lifastuzumab) 1 ug/mL.
For assay [6], the target named is Construct 5 (chimeric human NaPi2b, swap in NaPi2a in 304-348) (human). Briefly: flow cytometry, transfected HEK293-6e cells, antibody 5 nM (footnote b).
Construct 5 (chimeric human NaPi2b, swap in NaPi2a in 304-348) (human), sequence (O95436 other isoform, or with tags, fused parts or gaps mutant): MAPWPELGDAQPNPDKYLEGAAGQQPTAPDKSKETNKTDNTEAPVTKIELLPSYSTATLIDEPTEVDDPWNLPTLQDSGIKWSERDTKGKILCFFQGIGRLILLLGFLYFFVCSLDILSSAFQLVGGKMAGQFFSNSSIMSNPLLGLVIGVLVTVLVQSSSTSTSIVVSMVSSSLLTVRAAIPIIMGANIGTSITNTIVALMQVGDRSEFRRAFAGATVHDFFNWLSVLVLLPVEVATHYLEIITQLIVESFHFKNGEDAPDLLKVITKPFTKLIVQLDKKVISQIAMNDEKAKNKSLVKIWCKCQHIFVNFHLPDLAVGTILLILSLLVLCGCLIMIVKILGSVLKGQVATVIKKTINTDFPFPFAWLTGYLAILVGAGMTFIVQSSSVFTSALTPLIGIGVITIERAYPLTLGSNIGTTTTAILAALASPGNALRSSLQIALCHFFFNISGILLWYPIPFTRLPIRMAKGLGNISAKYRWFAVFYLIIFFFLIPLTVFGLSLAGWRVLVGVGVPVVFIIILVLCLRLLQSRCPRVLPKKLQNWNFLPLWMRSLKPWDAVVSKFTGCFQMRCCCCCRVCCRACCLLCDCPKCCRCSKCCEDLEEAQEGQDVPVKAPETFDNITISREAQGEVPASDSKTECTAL
In assay [7] the target is Full length human NaPi2b (sodium-dependent phosphate transporter 2B, SLC34A2) (human) (UniProt O95436). Described as above.
Full length human NaPi2b (sodium-dependent phosphate transporter 2B, SLC34A2) (human), sequence (O95436 whole entry): as the sequence (O95436 whole entry) above
The target of assay [8] is Construct 2 (chimeric human NaPi2b, swap in NaPi2c in 280-301) (human). Described as above.
Assay [9] addresses Construct 1 (chimeric human NaPi2b, swap in NaPi2c in 239-259) (human). The assay is described as above.
The target of assay [10] is Construct 6 (human NaPi2b del 317-333) (human) (UniProt O95436). Described as above.
Construct 6 (human NaPi2b del 317-333) (human), sequence (O95436 other isoform, or with tags, fused parts or gaps): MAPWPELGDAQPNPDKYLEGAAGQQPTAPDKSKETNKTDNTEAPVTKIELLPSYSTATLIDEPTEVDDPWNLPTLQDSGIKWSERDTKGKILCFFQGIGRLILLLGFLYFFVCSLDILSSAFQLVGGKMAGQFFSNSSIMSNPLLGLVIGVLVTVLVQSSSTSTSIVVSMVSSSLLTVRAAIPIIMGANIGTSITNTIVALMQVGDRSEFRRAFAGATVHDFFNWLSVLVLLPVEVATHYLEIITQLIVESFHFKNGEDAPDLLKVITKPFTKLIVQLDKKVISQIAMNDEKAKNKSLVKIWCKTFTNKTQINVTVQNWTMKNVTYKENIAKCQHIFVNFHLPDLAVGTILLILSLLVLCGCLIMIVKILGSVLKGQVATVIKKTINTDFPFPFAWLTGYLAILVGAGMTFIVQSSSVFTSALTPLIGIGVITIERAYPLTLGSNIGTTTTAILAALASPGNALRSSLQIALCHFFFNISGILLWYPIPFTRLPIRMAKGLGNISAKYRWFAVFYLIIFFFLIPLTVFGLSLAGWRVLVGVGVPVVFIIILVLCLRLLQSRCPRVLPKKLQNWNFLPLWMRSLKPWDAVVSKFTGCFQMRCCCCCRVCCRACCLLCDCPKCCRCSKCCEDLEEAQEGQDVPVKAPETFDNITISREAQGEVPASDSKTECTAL
The target in assay [11] is Construct 7 (human NaPi2b del 317-326) (human) (UniProt O95436). Described as above.
Construct 7 (human NaPi2b del 317-326) (human), sequence (O95436 other isoform, or with tags, fused parts or gaps): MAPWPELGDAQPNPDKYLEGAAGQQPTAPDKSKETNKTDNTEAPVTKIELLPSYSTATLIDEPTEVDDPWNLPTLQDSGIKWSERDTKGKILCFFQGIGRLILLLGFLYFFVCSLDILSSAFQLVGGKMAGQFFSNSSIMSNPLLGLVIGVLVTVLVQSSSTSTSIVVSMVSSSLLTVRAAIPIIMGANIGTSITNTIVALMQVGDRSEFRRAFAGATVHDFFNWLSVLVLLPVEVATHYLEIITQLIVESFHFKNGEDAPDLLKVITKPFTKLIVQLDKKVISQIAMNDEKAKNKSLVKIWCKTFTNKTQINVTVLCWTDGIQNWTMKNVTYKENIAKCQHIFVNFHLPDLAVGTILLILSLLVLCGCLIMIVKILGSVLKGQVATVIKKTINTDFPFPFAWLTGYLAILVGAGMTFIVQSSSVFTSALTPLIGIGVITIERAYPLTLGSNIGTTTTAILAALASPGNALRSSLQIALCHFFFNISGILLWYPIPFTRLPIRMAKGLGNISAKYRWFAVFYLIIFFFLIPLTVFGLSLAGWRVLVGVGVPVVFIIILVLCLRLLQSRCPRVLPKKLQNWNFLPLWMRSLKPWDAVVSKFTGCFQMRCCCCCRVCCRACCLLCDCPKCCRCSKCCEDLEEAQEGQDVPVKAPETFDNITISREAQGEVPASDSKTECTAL
In assay [12] the target is Construct 3 (chimeric human NaPi2b, swap in NaPi2c in 304-321) (human). The description is as above.
Construct 3 (chimeric human NaPi2b, swap in NaPi2c in 304-321) (human), sequence (O95436 other isoform, or with tags, fused parts or gaps mutant): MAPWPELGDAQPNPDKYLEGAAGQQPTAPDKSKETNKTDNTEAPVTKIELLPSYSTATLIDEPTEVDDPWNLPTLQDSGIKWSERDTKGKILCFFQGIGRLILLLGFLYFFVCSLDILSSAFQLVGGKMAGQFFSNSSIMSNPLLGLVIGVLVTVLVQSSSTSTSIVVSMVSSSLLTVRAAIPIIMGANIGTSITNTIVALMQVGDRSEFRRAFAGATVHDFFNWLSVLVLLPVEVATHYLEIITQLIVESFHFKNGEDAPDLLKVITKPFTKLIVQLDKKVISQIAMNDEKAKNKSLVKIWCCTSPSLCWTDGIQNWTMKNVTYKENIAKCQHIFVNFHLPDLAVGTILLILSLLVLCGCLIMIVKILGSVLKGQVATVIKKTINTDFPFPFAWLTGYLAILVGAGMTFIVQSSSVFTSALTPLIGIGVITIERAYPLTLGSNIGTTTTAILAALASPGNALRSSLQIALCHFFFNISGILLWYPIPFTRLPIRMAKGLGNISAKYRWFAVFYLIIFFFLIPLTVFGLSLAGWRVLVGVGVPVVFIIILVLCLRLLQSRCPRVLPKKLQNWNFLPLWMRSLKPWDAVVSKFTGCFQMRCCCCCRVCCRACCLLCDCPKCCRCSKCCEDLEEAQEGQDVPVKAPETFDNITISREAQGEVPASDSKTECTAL
The target in assay [13] is Construct 4 (chimeric human NaPi2b, swap in NaPi2c in 341-358) (human). The description is as above.
Construct 4 (chimeric human NaPi2b, swap in NaPi2c in 341-358) (human), sequence (O95436 other isoform, or with tags, fused parts or gaps mutant): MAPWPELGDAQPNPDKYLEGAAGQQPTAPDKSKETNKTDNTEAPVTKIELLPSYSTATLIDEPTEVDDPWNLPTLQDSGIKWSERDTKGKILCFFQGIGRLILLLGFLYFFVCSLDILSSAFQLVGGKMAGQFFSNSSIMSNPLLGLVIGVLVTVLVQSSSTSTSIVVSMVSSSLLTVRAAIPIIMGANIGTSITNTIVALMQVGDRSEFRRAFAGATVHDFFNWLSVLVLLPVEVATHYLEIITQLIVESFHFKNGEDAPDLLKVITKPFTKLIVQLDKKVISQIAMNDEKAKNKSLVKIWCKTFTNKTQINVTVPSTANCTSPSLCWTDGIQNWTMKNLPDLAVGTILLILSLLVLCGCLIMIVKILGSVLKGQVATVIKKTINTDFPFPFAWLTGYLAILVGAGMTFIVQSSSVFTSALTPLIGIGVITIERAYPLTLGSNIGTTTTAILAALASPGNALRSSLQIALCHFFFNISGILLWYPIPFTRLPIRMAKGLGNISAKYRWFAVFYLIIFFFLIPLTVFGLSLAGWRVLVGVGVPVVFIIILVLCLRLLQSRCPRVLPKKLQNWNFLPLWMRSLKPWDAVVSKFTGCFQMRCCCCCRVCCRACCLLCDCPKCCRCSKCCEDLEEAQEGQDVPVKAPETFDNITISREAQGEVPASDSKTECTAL
Assay [14] deals with Construct 5 (chimeric human NaPi2b, swap in NaPi2a in 304-348) (human). Briefly: flow cytometry, transfected HEK293-6e cells, antibody 50 nM (footnote b).
Assay [15] concerns the target Full length human NaPi2b (sodium-dependent phosphate transporter 2B, SLC34A2) (human) (UniProt O95436). The description is as above.
For assay [16], the target named is Construct 2 (chimeric human NaPi2b, swap in NaPi2c in 280-301) (human). Described as above.
The target of assay [17] is Construct 1 (chimeric human NaPi2b, swap in NaPi2c in 239-259) (human). The assay is described as above.
Construct 1 (chimeric human NaPi2b, swap in NaPi2c in 239-259) (human), sequence (O95436 other isoform, or with tags, fused parts or gaps mutant): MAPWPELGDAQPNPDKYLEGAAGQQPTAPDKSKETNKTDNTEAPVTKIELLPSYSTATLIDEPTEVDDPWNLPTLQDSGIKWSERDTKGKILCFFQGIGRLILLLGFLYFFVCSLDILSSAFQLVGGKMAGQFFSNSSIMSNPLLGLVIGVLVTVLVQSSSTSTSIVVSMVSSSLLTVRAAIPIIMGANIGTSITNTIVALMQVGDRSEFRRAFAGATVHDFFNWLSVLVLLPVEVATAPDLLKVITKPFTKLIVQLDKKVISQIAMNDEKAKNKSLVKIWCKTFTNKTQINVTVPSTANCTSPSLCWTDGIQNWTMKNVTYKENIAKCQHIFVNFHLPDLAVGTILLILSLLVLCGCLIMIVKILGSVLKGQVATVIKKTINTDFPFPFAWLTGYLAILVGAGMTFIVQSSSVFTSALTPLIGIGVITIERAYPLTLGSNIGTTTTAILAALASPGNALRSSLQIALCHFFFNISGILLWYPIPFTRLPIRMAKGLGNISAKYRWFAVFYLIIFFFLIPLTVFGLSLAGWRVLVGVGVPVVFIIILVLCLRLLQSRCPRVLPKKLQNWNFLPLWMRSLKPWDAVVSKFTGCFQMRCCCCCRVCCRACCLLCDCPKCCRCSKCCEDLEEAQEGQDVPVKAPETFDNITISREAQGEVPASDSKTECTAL
Assay [18] has as its target Construct 6 (human NaPi2b del 317-333) (human) (UniProt O95436). Described as above.
Assay [19] deals with Construct 7 (human NaPi2b del 317-326) (human) (UniProt O95436). The assay is described as above.
Assay [20] deals with Construct 3 (chimeric human NaPi2b, swap in NaPi2c in 304-321) (human). The description is as above.
Assay [21] deals with Construct 4 (chimeric human NaPi2b, swap in NaPi2c in 341-358) (human). The description is as above.
Assay [22] has as its target Construct 5 (chimeric human NaPi2b, swap in NaPi2a in 304-348) (human). Briefly: flow cytometry, transfected HEK293-6e cells, antibody 0.5 nM (footnote b).
Assay [23] concerns the target Full length human NaPi2b (sodium-dependent phosphate transporter 2B, SLC34A2) (human) (UniProt O95436). The assay is described as above.
For assay [24], the target named is Construct 2 (chimeric human NaPi2b, swap in NaPi2c in 280-301) (human). Described as above.
Assay [25] has as its target Construct 1 (chimeric human NaPi2b, swap in NaPi2c in 239-259) (human). The description is as above.
The target of assay [26] is Construct 6 (human NaPi2b del 317-333) (human) (UniProt O95436). Described as above.
For assay [27], the target named is Construct 7 (human NaPi2b del 317-326) (human) (UniProt O95436). The description is as above.
For assay [28], the target named is Construct 3 (chimeric human NaPi2b, swap in NaPi2c in 304-321) (human). The description is as above.
Assay [29] deals with Construct 4 (chimeric human NaPi2b, swap in NaPi2c in 341-358) (human). Described as above.

Take “Lifastuzumab (v18993, wild-type Fc) (antibody)”: in assay [1], the % ADCC at 0.0192 nM (25 PBMCs:1 IGROV-1, 4 h) was determined as 5.96%; the % ADCC at 0.48 nM (25 PBMCs:1 IGROV-1, 4 h) was found to be 14%; the % ADCC at 12 nM (25 PBMCs:1 IGROV-1, 4 h) was 14.4%.
Take “v16955 (Palivizumab, anti-RSV, negative control of Example 9) (antibody)”: the % Inhibition vs. irrelevant mAb in assay [2], in assay [3], in assay [4] and in [5] was 0% each time.
Take v18992 (Fc wild-type MX-35) (antibody): in [1], the ADCC EC50 (nM) (25 PBMCs:1 IGROV-1, 4-hour incubation) was 0.035 nM and the ADCP EC50 (nM) (2 Macs:1 IGROV-1, 2-hour incubation) is 0.043 nM.
For “reference anti-NaPi2a antibody (polyclonal rabbit anti-human SLC34A1; Atlas Biotechnologies Inc; Cat. No. HPA051255)”, the Background-Subtracted AF647 Mean Fluorescence Intensity in assay [6] stood at 546 MFI; in assay [7], 97 MFI; in assay [8] it was 222 MFI; in [9] it was 859 MFI; in assay [10], 283 MFI; in assay [11] it was 1 MFI. Besides, the Background-Subtracted AF647 Mean Fluorescence Intensity in assay [12] stood at 411 MFI; in assay [13] it was 250 MFI; in [14] it was 339 MFI; in assay [15] it was 107 MFI; in assay [16], 230 MFI; in assay [17], 616 MFI. Further, the Background-Subtracted AF647 Mean Fluorescence Intensity in assay [18] is 291 MFI; in [19] it was 123 MFI; in [20], 375 MFI; in assay [21], 511 MFI; in assay [22], 119 MFI; in assay [23], 596 MFI. The Background-Subtracted AF647 Mean Fluorescence Intensity was 70 MFI in [24]; 99 MFI in assay [25]; 666 MFI in [26]; 369 MFI in assay [27]; 40 MFI in [28]; 146 MFI in assay [29].
